# Results reported in patent US20130266566A1 (AbbVie / Abbott, published 2013).
# T1: mouse PAI-1 (mouse, UniProt P22777 24-401)
# T1 sequence: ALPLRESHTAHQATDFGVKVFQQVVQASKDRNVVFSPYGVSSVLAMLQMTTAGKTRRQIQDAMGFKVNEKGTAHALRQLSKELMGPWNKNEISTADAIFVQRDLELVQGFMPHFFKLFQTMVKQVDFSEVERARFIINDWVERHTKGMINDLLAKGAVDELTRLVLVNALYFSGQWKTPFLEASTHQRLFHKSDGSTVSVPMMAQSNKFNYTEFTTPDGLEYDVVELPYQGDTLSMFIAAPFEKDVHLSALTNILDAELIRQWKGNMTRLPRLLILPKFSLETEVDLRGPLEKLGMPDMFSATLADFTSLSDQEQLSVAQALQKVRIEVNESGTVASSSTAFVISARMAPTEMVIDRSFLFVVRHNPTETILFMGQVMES
# T2: rat PAI-1 (rat, UniProt P20961 24-402)
# T2 sequence: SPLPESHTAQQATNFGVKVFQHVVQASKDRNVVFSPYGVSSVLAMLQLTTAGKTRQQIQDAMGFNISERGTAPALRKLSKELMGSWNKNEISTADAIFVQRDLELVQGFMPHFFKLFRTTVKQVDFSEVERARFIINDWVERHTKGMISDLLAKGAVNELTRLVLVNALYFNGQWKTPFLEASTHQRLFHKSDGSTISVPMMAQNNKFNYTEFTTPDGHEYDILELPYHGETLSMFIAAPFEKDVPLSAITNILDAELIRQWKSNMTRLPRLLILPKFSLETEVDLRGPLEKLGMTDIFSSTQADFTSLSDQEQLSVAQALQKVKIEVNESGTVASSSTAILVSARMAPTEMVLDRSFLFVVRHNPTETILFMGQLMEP
# T3: rabbit PAI-1 (rabbit)
# T3 chain: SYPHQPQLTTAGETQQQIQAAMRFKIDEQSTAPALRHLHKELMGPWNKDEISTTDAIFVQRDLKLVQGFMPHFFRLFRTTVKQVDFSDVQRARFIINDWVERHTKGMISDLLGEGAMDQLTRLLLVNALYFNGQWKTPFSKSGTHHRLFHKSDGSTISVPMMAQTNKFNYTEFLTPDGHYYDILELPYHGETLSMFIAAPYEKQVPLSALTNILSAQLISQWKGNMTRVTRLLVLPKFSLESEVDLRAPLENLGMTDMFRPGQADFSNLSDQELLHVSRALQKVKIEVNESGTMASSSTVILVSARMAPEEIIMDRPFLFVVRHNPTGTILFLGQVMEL
# Tests used:
# mouse PAI-1 [1] = target: T1, mouse PAI-1; experiment: cell-based or functional assay
# [2] = target: T4, active human PAI-1, recombinant, wild-type, non-glycosylated (E. coli) (human, UniProt P05121 24-402); experiment: cell-based or functional assay
# rat PAI-1 [3] = target: T2, rat PAI-1; experiment: cell-based or functional assay
# cynomolgus PAI-1 = cynomolgus PAI-1 (cynomolgus, UniProt P05121 24-402 (human entry), limits assumed); experiment: cell-based or functional assay
# mouse PAI-1 [4] = target: T1, mouse PAI-1; experiment: cell-based or functional assay; remark: listed apart in the source
# [5] = target: T4, active human PAI-1, recombinant, …; experiment: cell-based or functional assay; remark: listed apart in the source
# rabbit PAI-1 = target: T3, rabbit PAI-1; experiment: competition ELISA, IgG on plate, biotinylated active human PAI-1 against titrated unlabelled competitor
# rat PAI-1 [6] = target: T2, rat PAI-1; experiment: cell-based or functional assay; remark: listed apart in the source
Binder,Chromogenic (IC50 in nM) mouse (mouse PAI-1 [1]) [nM],Chromogenic IC50 ratio mouse/human (mouse PAI-1 [1]) [fold],Chromogenic (IC50 in nM) human [2] [nM],Chromogenic (IC50 in nM) rat (rat PAI-1 [3]) [nM],Chromogenic IC50 ratio rat/human (rat PAI-1 [3]) [fold],Chromogenic (IC50 in nM) cyno (cynomolgus PAI-1) [nM],Chromogenic IC50 ratio cyno/human (cynomolgus PAI-1) [fold],HT-1080 Exo PAI-1 (IC50 in nM) mouse (mouse PAI-1 [4]) [nM],HT-1080 Exo PAI-1 (IC50 in nM) human [5] [nM],IC50 ratio rabbit/wt (rabbit PAI-1) [fold],HT-1080 Exo PAI-1 (IC50 in nM) rat (rat PAI-1 [6]) [nM]
Antibody 01 scFv (scFv) QVQLVQSGAEVKKPGSSVKVSCKASGGTFSSYAISWVRQAPGQGLEWMGGIIPIFGTANYAQKFQGRVTITADESTSTAYMELSSLRSEDTAVYYCAREKRQWLEGHFDYWGRGTLVTVSSDIQMTQSPSTLSASVGDRVTITCRASEGIYRSLAWYQQKPGKAPKLLIYKASSLASGVPSRFSGSGSGTEFTLTISSLQPDDFATYYCQQYSNYPLTFGGGTKVEIK,28.3,8.2,3.4,208,60.5,1.2,0.4,34.5,23.9,,
Antibody 09 scFv (scFv) QVQLQQSGAEVKKPGSSVKVSCKASGGTFSSYAISWVRQAPGQGLEWMGGIIPAFDTANYAQKFQGRVTITADESTSTAYMELSGLRSEDTAVYYCAREKRQWLEGHFDYWGRGTPVTVSSDIQMTQSPSFLSASIGDRVTITCQASEGIYHNLAWYQQKPGKAPKLLIYRASSLASGAPSRFSGSGSGTDFTLTISSLQPDDFATYYCQQYSNYPLTFGGGTKLEIK,,,,29.7,,0.7,,21,23,,52.7
Antibody 27 scFv (scFv) QVQLQQSGAEVKKPGSSVKVSCKASGGAFSSYAISWVRQAPGQGLEWMGGIIPTFGTANYAQKFQGRVTITADESTSTAYMELSGLRSEDTAVYYCAREKRQWLEGHFDYWGRGTPVTVSSDIQMTQSPSFLSASIGDRVTITCRASEGIYHNLAWYQQKPGKAPKLLIYRASSLASGAPSRFSGSGSGTDFTLTISSLQPDDFATYYCQQYSNYPLTFGGGTKLEIK,,,,49.8,,2.2,,16.4,18.8,,33.8
Antibody 06 scFv (scFv) QVQLQQSGAEVKKPGSSVKVSCKASGGTFSSYAISWVRQAPGQGLEWMGGIIPTFGTANYAQKFQGRVTITADESTSTAYMELSGLRSEDTAVYYCAREKRQWLEGHFDYWGRGTPVTVSSDIQMTQSPSFLSASIGDRVTITCRASEGIYHELAWYQQKPGKAPKLLIYRASSLASGAPSRFSGSGSGTDFTLTISSLQPDDFATYYCQQYSNYPLTFGRGTKLEIK,48.2,0.6,74.6,37.1,0.5,31.6,0.4,,,,
Antibody 20 scFv (scFv) QVQLQQSGAEVKKPGSSVKVSCKASGGTFSSYAISWVRQAPGQGLEWMGGIIPTFGTANYAQKFQGRVTITADESTSTAYMELSSLRSEDTAVYYCAREKRQWLEGHFDYWGRGTLVTVSSDIQMTQSPSTLSASVGDRVTITCRASEGIYHELAWYQQKPGKAPKLLIYRASSLASGVPSRFSGSRSGTEFTLTISSLQPDDFATYYCQQYSDYPLTFGGGTKVEIK,4.9,,,,,1.3,,18.1,19.1,,42.4

# Next, values leading:
Chromogenic (IC50 in nM) mouse (mouse PAI-1 [1]) [nM],Chromogenic IC50 ratio mouse/human (mouse PAI-1 [1]) [fold],Chromogenic (IC50 in nM) human [2] [nM],Chromogenic (IC50 in nM) rat (rat PAI-1 [3]) [nM],Chromogenic IC50 ratio rat/human (rat PAI-1 [3]) [fold],Chromogenic (IC50 in nM) cyno (cynomolgus PAI-1) [nM],Chromogenic IC50 ratio cyno/human (cynomolgus PAI-1) [fold],HT-1080 Exo PAI-1 (IC50 in nM) mouse (mouse PAI-1 [4]) [nM],HT-1080 Exo PAI-1 (IC50 in nM) human [5] [nM],IC50 ratio rabbit/wt (rabbit PAI-1) [fold],HT-1080 Exo PAI-1 (IC50 in nM) rat (rat PAI-1 [6]) [nM],Binder
,,,,,,,,,9,,"Antibody 01 IgG4, not germlined (antibody, V domains shown, IgG4; also called Ab 01) VH: QVQLVQSGAEVKKPGSSVKVSCKASGGTFSSYAISWVRQAPGQGLEWMGGIIPIFGTANYAQKFQGRVTITADESTSTAYMELSSLRSEDTAVYYCAREKRQWLEGHFDYWGRGTLVTVSS VL: DIQMTQSPSTLSASVGDRVTITCRASEGIYRSLAWYQQKPGKAPKLLIYKASSLASGVPSRFSGSGSGTEFTLTISSLQPDDFATYYCQQYSNYPLTFGGGTKVEIK"
,,,,,,,,,4.8,,"Antibody 02 IgG4, not germlined (antibody, V domains shown, IgG4; also called Ab 02) VH: QVQLVQSGAEVKKPGSSVKVSCKASGGTFSSYAISWVRQAPGQGLEWMGGIIPTFGTANYAQKFQGRVTITADESTSTAYMELSSLRSEDTAVYYCAREKRQWLEGHFDYWGRGTLVTVSS VL: DIQMTQSPSTLSASVGDRVTITCRASEGIYHSLAWYQQKPGKAPKLLIYKASSLASGVPSRFSGSGSGTEFTLTISSLQPDDFATYYCQQYSDYPLTFGGGTKVEIK"
,,,,,,,,,7.9,,"Antibody 16 IgG1, not germlined (antibody, V domains shown, IgG1; also called Ab 16) VH: QVQLVQSGAEVKKPGSSVKVSCKASGGTFSSYAISWVRQAPGQGLEWMGGIIPTFGTANYAQKFQGRVTITADESTSTAYMELSSLRSEDTAVYYCAREKRQWLEGHFDYWGRGTLVTVSS VL: DIQMTQSPSTLSASVGDRVTITCRASESIYHSLAWYQQKPGKAPKLLIYKASSLASGVPSRFSGSRSGTEFTLTISSLQPDDFATYYCQQYSNYPLTFGGGTKVEIK"
,,,23.1,,0.8,,22,28,,52,Antibody 14 scFv (scFv) QVQLQQSGAEVKKPGSSVKVSCKASGGTFSSYAISWVRQAPGQGLEWMGGIIPTFGTANYAQKFQGRVTITADESTSTAYMELSGLRSEDTAVYYCAREKRQWLEGHFDYWGRGTLVTVSSDIQMTQSPSFLSASIGDRVTITCRASEGIYHNLAWYQQKPGKAPKLLIYRASSLASGAPSRFSGSGSGTDFTFTISSLQPDDFATYYCQQYSNYPLTFGGGTKLEIK
66.9,9.3,7.2,64.2,8.9,2.2,0.3,37,36,,57,Antibody 15 scFv (scFv) QVQLQQSGAEVKKPGSSVKVSCKASGGTFSSYAISWVRQAPGQGLEWMGGIIPTFGTANYAQKFQGRVTITADESTSTAYMELSGLRSEDTAVYYCAREKRQWLEGHFDYWGRGTPVTVSSDIQMAQSPSFLSASIGDRVTITCRASEGIYHNLAWYQQKPGKAPKLLIYRASSLASGAPSRFSGSGSGTDFTLTISSLQPDDFATYYCQQYSNYPLTFGGGTKLEIR
143,0.8,187,91,0.5,117,0.6,,,,,Antibody 07 scFv (scFv) QVQLQQSGAEVKKPGSSVKVSCKASGGTFSSYAISWVRQAPGQGLEWVGGIIPTFGTANYAQKFQGRVTITADESTSTAYMELSGLRSEDTAVYYCAREKRQWLEGHFDYWGRGTPVTVSSDIQMAQSPSFLSASIGDRVTITCRASEGIYHELAWYQQKPGKAPKLLIYRASSLASGAPSRFSGSGSGTDFTLTISSLQPDDFATYYCQQYSNYPLTFGGGTKLEIK
334,149,2.2,296,132,0.5,0.2,,,,,Antibody 10 scFv (scFv) QVQLQQSGAEVKKPGSSVKVSCKASGGTFSSYAISWVRQAPGQGLEWMGGIIPTFGTANYAQKFQGRVTITADESTSTAYMELSSLRSEDTAVYYCAREKRQWLEGHFDYWGRGTPVTVSSDIQMTQSPSFLSASIGDRVAITCRASEGIYHSLAWYQQKPGKAPKLLIYRASSLASGAPSRFSGSGSGTDFTLTISSLQPDDFATYYCQQYSNYPLTFGGGTRLEIK
